Assay results published in US20150344540A1, “NOVEL GLP-1 RECEPTOR AGONISTS WITH CHOLESTEROL EFFLUX ACTIVITY” (NOVO NORDISK A/S, priority 2012, published 2015).
Where no end group is shown, it is not given here. [ ]: non-standard residue; d: D form. The star is where a group is joined. Desaminohistidyl = O=C(CCc1c[nH]cn1)*; Aib = CC(C)(N)C(=O)O

B1: [desamino-His7,Aib8,Glu23,Val25,Glu34,Lys35,Val36,Lys37]-GLP-1-(7-37)-peptidyl-Glu-Phe-Leu amide (peptide)
peptide: [Desaminohistidyl][Aib]EGTFTSDVSSYLEGEAVKEFIAWLVEKVKEFL-NH2
SMILES: CC[C@H](C)[C@H](NC(=O)[C@H](Cc1ccccc1)NC(=O)[C@H](CCC(=O)O)NC(=O)[C@H](CCCCN)NC(=O)[C@@H](NC(=O)[C@H](C)NC(=O)[C@H](CCC(=O)O)NC(=O)CNC(=O)[C@H](CCC(=O)O)NC(=O)[C@H](CC(C)C)NC(=O)[C@H](Cc1ccc(O)cc1)NC(=O)[C@H](CO)NC(=O)[C@H](CO)NC(=O)[C@@H](NC(=O)[C@H](CC(=O)O)NC(=O)[C@H](CO)NC(=O)[C@@H](NC(=O)[C@H](Cc1ccccc1)NC(=O)[C@@H](NC(=O)CNC(=O)[C@H](CCC(=O)O)NC(=O)C(C)(C)NC(=O)CCc1c[nH]cn1)[C@@H](C)O)[C@@H](C)O)C(C)C)C(C)C)C(=O)N[C@@H](C)C(=O)N[C@@H](Cc1c[nH]c2ccccc12)C(=O)N[C@@H](CC(C)C)C(=O)N[C@H](C(=O)N[C@@H](CCC(=O)O)C(=O)N[C@@H](CCCCN)C(=O)N[C@H](C(=O)N[C@@H](CCCCN)C(=O)N[C@@H](CCC(=O)O)C(=O)N[C@@H](Cc1ccccc1)C(=O)N[C@@H](CC(C)C)C(N)=O)C(C)C)C(C)C
B2: [Aib8,Glu23,Val25,Gln30,Leu33,Glu34,Lys35,Aib36,Lys37]-GLP-1-(7-37)-peptidyl-Glu-Phe-Leu amide (peptide)
peptide: H[Aib]EGTFTSDVSSYLEGEAVKEFIQWLLEK[Aib]KEFL-NH2
modifications: N-terminus assumed
SMILES: CC[C@H](C)[C@H](NC(=O)[C@H](Cc1ccccc1)NC(=O)[C@H](CCC(=O)O)NC(=O)[C@H](CCCCN)NC(=O)[C@@H](NC(=O)[C@H](C)NC(=O)[C@H](CCC(=O)O)NC(=O)CNC(=O)[C@H](CCC(=O)O)NC(=O)[C@H](CC(C)C)NC(=O)[C@H](Cc1ccc(O)cc1)NC(=O)[C@H](CO)NC(=O)[C@H](CO)NC(=O)[C@@H](NC(=O)[C@H](CC(=O)O)NC(=O)[C@H](CO)NC(=O)[C@@H](NC(=O)[C@H](Cc1ccccc1)NC(=O)[C@@H](NC(=O)CNC(=O)[C@H](CCC(=O)O)NC(=O)C(C)(C)NC(=O)[C@@H](N)Cc1c[nH]cn1)[C@@H](C)O)[C@@H](C)O)C(C)C)C(C)C)C(=O)N[C@@H](CCC(N)=O)C(=O)N[C@@H](Cc1c[nH]c2ccccc12)C(=O)N[C@@H](CC(C)C)C(=O)N[C@@H](CC(C)C)C(=O)N[C@@H](CCC(=O)O)C(=O)N[C@@H](CCCCN)C(=O)NC(C)(C)C(=O)N[C@@H](CCCCN)C(=O)N[C@@H](CCC(=O)O)C(=O)N[C@@H](Cc1ccccc1)C(=O)N[C@@H](CC(C)C)C(N)=O
B3: [Aib8,Val25,Asn34,Lys35,Aib36,Ala37]-GLP-1-(7-37)-peptidyl-Glu-Phe-Leu amide (peptide)
peptide: H[Aib]EGTFTSDVSSYLEGQAVKEFIAWLVNK[Aib]AEFL-NH2
modifications: N-terminus assumed
SMILES: CC[C@H](C)[C@H](NC(=O)[C@H](Cc1ccccc1)NC(=O)[C@H](CCC(=O)O)NC(=O)[C@H](CCCCN)NC(=O)[C@@H](NC(=O)[C@H](C)NC(=O)[C@H](CCC(N)=O)NC(=O)CNC(=O)[C@H](CCC(=O)O)NC(=O)[C@H](CC(C)C)NC(=O)[C@H](Cc1ccc(O)cc1)NC(=O)[C@H](CO)NC(=O)[C@H](CO)NC(=O)[C@@H](NC(=O)[C@H](CC(=O)O)NC(=O)[C@H](CO)NC(=O)[C@@H](NC(=O)[C@H](Cc1ccccc1)NC(=O)[C@@H](NC(=O)CNC(=O)[C@H](CCC(=O)O)NC(=O)C(C)(C)NC(=O)[C@@H](N)Cc1c[nH]cn1)[C@@H](C)O)[C@@H](C)O)C(C)C)C(C)C)C(=O)N[C@@H](C)C(=O)N[C@@H](Cc1c[nH]c2ccccc12)C(=O)N[C@@H](CC(C)C)C(=O)N[C@H](C(=O)N[C@@H](CC(N)=O)C(=O)N[C@@H](CCCCN)C(=O)NC(C)(C)C(=O)N[C@@H](C)C(=O)N[C@@H](CCC(=O)O)C(=O)N[C@@H](Cc1ccccc1)C(=O)N[C@@H](CC(C)C)C(N)=O)C(C)C
B4: [Aib8,Glu23,Val25,Glu34,Lys35,Val36,Lys37]-GLP-1-(7-37)-peptidyl-Glu-His-Leu amide (peptide)
peptide: H[Aib]EGTFTSDVSSYLEGEAVKEFIAWLVEKVKEHL-NH2
modifications: N-terminus assumed
SMILES: CC[C@H](C)[C@H](NC(=O)[C@H](Cc1ccccc1)NC(=O)[C@H](CCC(=O)O)NC(=O)[C@H](CCCCN)NC(=O)[C@@H](NC(=O)[C@H](C)NC(=O)[C@H](CCC(=O)O)NC(=O)CNC(=O)[C@H](CCC(=O)O)NC(=O)[C@H](CC(C)C)NC(=O)[C@H](Cc1ccc(O)cc1)NC(=O)[C@H](CO)NC(=O)[C@H](CO)NC(=O)[C@@H](NC(=O)[C@H](CC(=O)O)NC(=O)[C@H](CO)NC(=O)[C@@H](NC(=O)[C@H](Cc1ccccc1)NC(=O)[C@@H](NC(=O)CNC(=O)[C@H](CCC(=O)O)NC(=O)C(C)(C)NC(=O)[C@@H](N)Cc1c[nH]cn1)[C@@H](C)O)[C@@H](C)O)C(C)C)C(C)C)C(=O)N[C@@H](C)C(=O)N[C@@H](Cc1c[nH]c2ccccc12)C(=O)N[C@@H](CC(C)C)C(=O)N[C@H](C(=O)N[C@@H](CCC(=O)O)C(=O)N[C@@H](CCCCN)C(=O)N[C@H](C(=O)N[C@@H](CCCCN)C(=O)N[C@@H](CCC(=O)O)C(=O)N[C@@H](Cc1c[nH]cn1)C(=O)N[C@@H](CC(C)C)C(N)=O)C(C)C)C(C)C
B5: [Aib8,Val25,Gln27,Asn34,Lys35,Aib36,Ala37]-GLP-1-(7-37)-peptidyl-Glu-Phe-Leu amide (peptide)
peptide: H[Aib]EGTFTSDVSSYLEGQAVKQFIAWLVNK[Aib]AEFL-NH2
modifications: N-terminus assumed
SMILES: CC[C@H](C)[C@H](NC(=O)[C@H](Cc1ccccc1)NC(=O)[C@H](CCC(N)=O)NC(=O)[C@H](CCCCN)NC(=O)[C@@H](NC(=O)[C@H](C)NC(=O)[C@H](CCC(N)=O)NC(=O)CNC(=O)[C@H](CCC(=O)O)NC(=O)[C@H](CC(C)C)NC(=O)[C@H](Cc1ccc(O)cc1)NC(=O)[C@H](CO)NC(=O)[C@H](CO)NC(=O)[C@@H](NC(=O)[C@H](CC(=O)O)NC(=O)[C@H](CO)NC(=O)[C@@H](NC(=O)[C@H](Cc1ccccc1)NC(=O)[C@@H](NC(=O)CNC(=O)[C@H](CCC(=O)O)NC(=O)C(C)(C)NC(=O)[C@@H](N)Cc1c[nH]cn1)[C@@H](C)O)[C@@H](C)O)C(C)C)C(C)C)C(=O)N[C@@H](C)C(=O)N[C@@H](Cc1c[nH]c2ccccc12)C(=O)N[C@@H](CC(C)C)C(=O)N[C@H](C(=O)N[C@@H](CC(N)=O)C(=O)N[C@@H](CCCCN)C(=O)NC(C)(C)C(=O)N[C@@H](C)C(=O)N[C@@H](CCC(=O)O)C(=O)N[C@@H](Cc1ccccc1)C(=O)N[C@@H](CC(C)C)C(N)=O)C(C)C
B6: [Aib8,Glu23,Val25,Arg26,Glu34,Lys35,Aib36,Lys37]-GLP-1-(7-37)-peptidyl-Glu-Phe-Leu amide (peptide)
peptide: H[Aib]EGTFTSDVSSYLEGEAVREFIAWLVEK[Aib]KEFL-NH2
modifications: N-terminus assumed
SMILES: CC[C@H](C)[C@H](NC(=O)[C@H](Cc1ccccc1)NC(=O)[C@H](CCC(=O)O)NC(=O)[C@H](CCCNC(=N)N)NC(=O)[C@@H](NC(=O)[C@H](C)NC(=O)[C@H](CCC(=O)O)NC(=O)CNC(=O)[C@H](CCC(=O)O)NC(=O)[C@H](CC(C)C)NC(=O)[C@H](Cc1ccc(O)cc1)NC(=O)[C@H](CO)NC(=O)[C@H](CO)NC(=O)[C@@H](NC(=O)[C@H](CC(=O)O)NC(=O)[C@H](CO)NC(=O)[C@@H](NC(=O)[C@H](Cc1ccccc1)NC(=O)[C@@H](NC(=O)CNC(=O)[C@H](CCC(=O)O)NC(=O)C(C)(C)NC(=O)[C@@H](N)Cc1c[nH]cn1)[C@@H](C)O)[C@@H](C)O)C(C)C)C(C)C)C(=O)N[C@@H](C)C(=O)N[C@@H](Cc1c[nH]c2ccccc12)C(=O)N[C@@H](CC(C)C)C(=O)N[C@H](C(=O)N[C@@H](CCC(=O)O)C(=O)N[C@@H](CCCCN)C(=O)NC(C)(C)C(=O)N[C@@H](CCCCN)C(=O)N[C@@H](CCC(=O)O)C(=O)N[C@@H](Cc1ccccc1)C(=O)N[C@@H](CC(C)C)C(N)=O)C(C)C
B7: [Aib8,Glu23,Val25,Arg26,Val29,Gln30,Leu33,Glu34,Lys35,Aib36,Lys37]-GLP-1-(7-37)-peptidyl-Glu-Phe-Leu amide (peptide)
peptide: H[Aib]EGTFTSDVSSYLEGEAVREFVQWLLEK[Aib]KEFL-NH2
modifications: N-terminus assumed
SMILES: CC(C)C[C@H](NC(=O)[C@H](Cc1ccccc1)NC(=O)[C@H](CCC(=O)O)NC(=O)[C@H](CCCCN)NC(=O)C(C)(C)NC(=O)[C@H](CCCCN)NC(=O)[C@H](CCC(=O)O)NC(=O)[C@H](CC(C)C)NC(=O)[C@H](CC(C)C)NC(=O)[C@H](Cc1c[nH]c2ccccc12)NC(=O)[C@H](CCC(N)=O)NC(=O)[C@@H](NC(=O)[C@H](Cc1ccccc1)NC(=O)[C@H](CCC(=O)O)NC(=O)[C@H](CCCNC(=N)N)NC(=O)[C@@H](NC(=O)[C@H](C)NC(=O)[C@H](CCC(=O)O)NC(=O)CNC(=O)[C@H](CCC(=O)O)NC(=O)[C@H](CC(C)C)NC(=O)[C@H](Cc1ccc(O)cc1)NC(=O)[C@H](CO)NC(=O)[C@H](CO)NC(=O)[C@@H](NC(=O)[C@H](CC(=O)O)NC(=O)[C@H](CO)NC(=O)[C@@H](NC(=O)[C@H](Cc1ccccc1)NC(=O)[C@@H](NC(=O)CNC(=O)[C@H](CCC(=O)O)NC(=O)C(C)(C)NC(=O)[C@@H](N)Cc1c[nH]cn1)[C@@H](C)O)[C@@H](C)O)C(C)C)C(C)C)C(C)C)C(N)=O

What follows are binders tested against human GLP-1 receptor (human, UniProt P43220) (assay: cell-based or functional assay).

| Binder | CRE luciferase EC50, 0% HSA [pM] | CRE luciferase EC50, 1% HSA [pM] |
| --- | --- | --- |
| B1 | 886 | 242 |
| B2 | 238 | 61 |
| B3 | 108 | 62 |
| HGEGTFTSDVSSYLEGEAVKEFIAWLVEKVKEFL-NH2 [[Gly8,Glu23,Val25,Glu34,Lys35,Val36,Lys37]-GLP-1-(7-37)-peptidyl-Glu-Phe-Leu amide] | 6080 | 1380 |
| B4 | 89 | 116 |
| B5 | 235 | 109 |
| HGEGTFTSDVSSYLEGEAVKEFIAWLVEKVKEHL-NH2 [[Gly8,Glu23,Val25,Glu34,Lys35,Val36,Lys37]-GLP-1-(7-37)-peptidyl-Glu-His-Leu amide] | 337 | 96 |
| B6 | 76 | 28 |
| B7 | 94 | 29 |
